This experiment has as its target biotinylated alkaline phosphatase. The experiment in a line: SPR (Spreeta) refractive index response to 2 ug/ml b-AP on gold channels saturated with GBP-SA then GBP, after exposure to foulants (fibrinogen, human serum albumin, plasma, platelets).

Substance “His6 tagged fusion protein streptavidin-GBP (from UniProt P22629 13-133)” came in with a relative response to b-AP (% of GBP-SA control channel) of 80 to 100%.
